Results reported in the supplement of paper PMC10065799, “High-throughput profiling of sequence recognition by tyrosine kinases and SH2 domains using bacterial peptide display” (eLife, 2023).

Experiments:
Grb2 SH2 = Grb2 SH2 (UniProt P62993); experiment: SH2 binding enrichment of the phosphorylated peptide, bacterial display (enrichment ratio); higher = better substrate or ligand; peptides without Tyr show the background
c-Src SH2 = experiment: as above
SHP2-C SH2 = experiment: as above
MERTK = MERTK (UniProt Q12866); experiment: phosphorylation enrichment, bacterial display (enrichment ratio); higher = better substrate or ligand; peptides without Tyr show the background
Fes = Fes (UniProt P07332); experiment: as above
EPHB1 = EPHB1 (UniProt P54762); experiment: as above
EPHB1, sequence (P54762 whole entry, looked up): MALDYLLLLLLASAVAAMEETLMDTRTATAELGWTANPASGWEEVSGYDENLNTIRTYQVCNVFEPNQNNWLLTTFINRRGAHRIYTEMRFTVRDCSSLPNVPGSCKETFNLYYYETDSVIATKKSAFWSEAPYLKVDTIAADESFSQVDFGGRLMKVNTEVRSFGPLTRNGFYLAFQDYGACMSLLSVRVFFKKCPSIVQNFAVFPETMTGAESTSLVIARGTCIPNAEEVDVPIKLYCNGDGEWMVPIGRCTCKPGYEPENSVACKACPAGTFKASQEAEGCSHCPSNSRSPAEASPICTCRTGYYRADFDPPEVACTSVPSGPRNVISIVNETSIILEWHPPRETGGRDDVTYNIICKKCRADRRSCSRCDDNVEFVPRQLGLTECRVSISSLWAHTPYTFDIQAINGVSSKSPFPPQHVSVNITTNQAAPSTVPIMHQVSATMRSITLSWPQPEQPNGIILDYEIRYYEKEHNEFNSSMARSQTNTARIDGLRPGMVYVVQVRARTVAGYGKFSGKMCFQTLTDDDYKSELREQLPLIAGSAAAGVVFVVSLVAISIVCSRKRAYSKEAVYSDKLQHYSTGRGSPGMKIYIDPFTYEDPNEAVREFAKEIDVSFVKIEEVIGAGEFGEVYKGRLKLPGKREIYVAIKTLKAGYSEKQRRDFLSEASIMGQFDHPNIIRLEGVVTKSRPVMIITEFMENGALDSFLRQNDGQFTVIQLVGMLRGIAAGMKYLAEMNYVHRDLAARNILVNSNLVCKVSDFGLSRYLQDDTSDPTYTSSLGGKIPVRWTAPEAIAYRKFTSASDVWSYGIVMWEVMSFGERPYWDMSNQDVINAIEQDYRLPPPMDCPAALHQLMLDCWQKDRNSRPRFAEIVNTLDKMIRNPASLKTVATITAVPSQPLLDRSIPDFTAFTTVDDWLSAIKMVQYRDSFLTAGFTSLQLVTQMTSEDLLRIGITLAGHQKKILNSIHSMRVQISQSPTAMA

Fyn = Fyn (UniProt P06241); experiment: as above
Fyn, sequence (P06241 whole entry, looked up): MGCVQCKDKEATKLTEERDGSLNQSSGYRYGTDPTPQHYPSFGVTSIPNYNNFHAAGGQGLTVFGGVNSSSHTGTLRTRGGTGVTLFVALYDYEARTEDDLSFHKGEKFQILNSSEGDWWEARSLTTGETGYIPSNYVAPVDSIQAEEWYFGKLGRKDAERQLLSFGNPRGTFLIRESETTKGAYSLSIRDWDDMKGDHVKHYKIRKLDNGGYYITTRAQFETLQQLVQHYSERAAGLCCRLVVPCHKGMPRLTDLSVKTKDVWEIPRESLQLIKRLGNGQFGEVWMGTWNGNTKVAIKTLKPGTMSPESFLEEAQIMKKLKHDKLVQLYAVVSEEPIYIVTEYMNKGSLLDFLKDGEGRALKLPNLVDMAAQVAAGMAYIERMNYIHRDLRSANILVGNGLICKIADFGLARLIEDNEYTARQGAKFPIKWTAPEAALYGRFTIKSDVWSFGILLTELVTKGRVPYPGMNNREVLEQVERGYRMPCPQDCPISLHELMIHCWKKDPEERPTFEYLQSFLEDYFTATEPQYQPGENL

FGFR3 = FGFR3 (UniProt P22607); experiment: as above
FGFR3, sequence (P22607 whole entry, looked up): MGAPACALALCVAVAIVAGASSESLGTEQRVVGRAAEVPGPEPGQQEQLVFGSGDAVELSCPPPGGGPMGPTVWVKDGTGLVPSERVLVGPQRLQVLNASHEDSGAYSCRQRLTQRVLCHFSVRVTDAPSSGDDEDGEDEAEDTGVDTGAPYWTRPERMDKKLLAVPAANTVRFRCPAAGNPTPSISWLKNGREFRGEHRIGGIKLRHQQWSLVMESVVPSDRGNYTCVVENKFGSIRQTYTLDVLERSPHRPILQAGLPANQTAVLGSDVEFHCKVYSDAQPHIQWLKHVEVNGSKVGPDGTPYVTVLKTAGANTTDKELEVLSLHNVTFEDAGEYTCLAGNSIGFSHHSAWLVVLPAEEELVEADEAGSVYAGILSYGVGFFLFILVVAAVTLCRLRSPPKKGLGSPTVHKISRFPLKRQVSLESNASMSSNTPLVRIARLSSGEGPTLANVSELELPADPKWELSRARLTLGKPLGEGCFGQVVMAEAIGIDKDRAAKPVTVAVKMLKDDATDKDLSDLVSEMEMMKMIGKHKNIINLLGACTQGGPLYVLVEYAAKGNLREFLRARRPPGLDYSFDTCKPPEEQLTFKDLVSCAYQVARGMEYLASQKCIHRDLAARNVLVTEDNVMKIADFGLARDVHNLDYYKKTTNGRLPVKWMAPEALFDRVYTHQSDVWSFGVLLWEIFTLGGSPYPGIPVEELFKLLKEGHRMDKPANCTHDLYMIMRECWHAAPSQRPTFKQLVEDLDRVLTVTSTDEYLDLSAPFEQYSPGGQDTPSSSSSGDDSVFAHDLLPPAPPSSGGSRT

Fer (mouse) = experiment: as above
c-Src = experiment: as above
Hck = Hck (UniProt P08631); experiment: as above
Hck, sequence (P08631 whole entry, looked up): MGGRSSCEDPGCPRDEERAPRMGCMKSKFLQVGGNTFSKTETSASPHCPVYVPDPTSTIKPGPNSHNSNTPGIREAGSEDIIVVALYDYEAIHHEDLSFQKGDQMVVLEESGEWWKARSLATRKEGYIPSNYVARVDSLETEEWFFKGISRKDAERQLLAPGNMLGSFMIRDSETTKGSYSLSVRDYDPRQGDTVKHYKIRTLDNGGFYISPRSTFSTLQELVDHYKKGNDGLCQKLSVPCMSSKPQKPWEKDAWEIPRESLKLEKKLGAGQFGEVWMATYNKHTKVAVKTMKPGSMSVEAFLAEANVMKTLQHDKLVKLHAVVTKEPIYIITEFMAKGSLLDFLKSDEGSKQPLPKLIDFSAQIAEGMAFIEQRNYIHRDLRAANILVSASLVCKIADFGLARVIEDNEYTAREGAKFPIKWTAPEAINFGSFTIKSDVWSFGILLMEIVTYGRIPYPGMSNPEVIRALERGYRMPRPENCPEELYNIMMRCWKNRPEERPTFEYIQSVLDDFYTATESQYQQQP

FGFR1 = FGFR1 (UniProt P11362); experiment: as above
AncSZ = experiment: as above
EPHB2 = EPHB2 (UniProt P29323); experiment: as above
EPHB2, sequence (P29323 whole entry, looked up): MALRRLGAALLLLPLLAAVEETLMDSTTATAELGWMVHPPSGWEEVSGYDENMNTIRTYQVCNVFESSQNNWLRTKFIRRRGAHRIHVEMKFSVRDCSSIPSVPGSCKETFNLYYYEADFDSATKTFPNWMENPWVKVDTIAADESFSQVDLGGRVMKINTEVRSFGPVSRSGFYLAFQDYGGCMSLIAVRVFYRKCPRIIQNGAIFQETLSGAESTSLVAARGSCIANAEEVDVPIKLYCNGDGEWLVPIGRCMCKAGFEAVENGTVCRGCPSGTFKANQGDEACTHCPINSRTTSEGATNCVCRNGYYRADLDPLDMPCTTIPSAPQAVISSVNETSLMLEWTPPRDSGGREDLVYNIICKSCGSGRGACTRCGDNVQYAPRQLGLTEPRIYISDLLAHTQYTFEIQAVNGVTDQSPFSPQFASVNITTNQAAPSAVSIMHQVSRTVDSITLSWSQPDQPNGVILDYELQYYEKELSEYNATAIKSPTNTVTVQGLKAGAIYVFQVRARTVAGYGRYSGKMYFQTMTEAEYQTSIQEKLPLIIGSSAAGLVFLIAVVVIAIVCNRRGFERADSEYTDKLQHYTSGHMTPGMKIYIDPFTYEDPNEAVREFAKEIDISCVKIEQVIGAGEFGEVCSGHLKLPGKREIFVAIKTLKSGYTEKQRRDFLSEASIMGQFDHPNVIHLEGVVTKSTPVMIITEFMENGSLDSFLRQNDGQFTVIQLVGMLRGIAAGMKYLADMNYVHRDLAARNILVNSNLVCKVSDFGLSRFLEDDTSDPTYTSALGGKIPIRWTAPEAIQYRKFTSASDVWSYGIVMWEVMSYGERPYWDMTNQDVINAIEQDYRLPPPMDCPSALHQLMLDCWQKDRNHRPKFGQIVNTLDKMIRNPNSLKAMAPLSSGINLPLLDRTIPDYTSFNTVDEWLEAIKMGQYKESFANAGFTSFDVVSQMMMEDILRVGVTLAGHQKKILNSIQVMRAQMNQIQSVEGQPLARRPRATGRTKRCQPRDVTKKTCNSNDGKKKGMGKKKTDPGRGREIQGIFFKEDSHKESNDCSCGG

Jak2 = Jak2 (UniProt O60674); experiment: as above
Jak2, sequence (O60674 whole entry, looked up): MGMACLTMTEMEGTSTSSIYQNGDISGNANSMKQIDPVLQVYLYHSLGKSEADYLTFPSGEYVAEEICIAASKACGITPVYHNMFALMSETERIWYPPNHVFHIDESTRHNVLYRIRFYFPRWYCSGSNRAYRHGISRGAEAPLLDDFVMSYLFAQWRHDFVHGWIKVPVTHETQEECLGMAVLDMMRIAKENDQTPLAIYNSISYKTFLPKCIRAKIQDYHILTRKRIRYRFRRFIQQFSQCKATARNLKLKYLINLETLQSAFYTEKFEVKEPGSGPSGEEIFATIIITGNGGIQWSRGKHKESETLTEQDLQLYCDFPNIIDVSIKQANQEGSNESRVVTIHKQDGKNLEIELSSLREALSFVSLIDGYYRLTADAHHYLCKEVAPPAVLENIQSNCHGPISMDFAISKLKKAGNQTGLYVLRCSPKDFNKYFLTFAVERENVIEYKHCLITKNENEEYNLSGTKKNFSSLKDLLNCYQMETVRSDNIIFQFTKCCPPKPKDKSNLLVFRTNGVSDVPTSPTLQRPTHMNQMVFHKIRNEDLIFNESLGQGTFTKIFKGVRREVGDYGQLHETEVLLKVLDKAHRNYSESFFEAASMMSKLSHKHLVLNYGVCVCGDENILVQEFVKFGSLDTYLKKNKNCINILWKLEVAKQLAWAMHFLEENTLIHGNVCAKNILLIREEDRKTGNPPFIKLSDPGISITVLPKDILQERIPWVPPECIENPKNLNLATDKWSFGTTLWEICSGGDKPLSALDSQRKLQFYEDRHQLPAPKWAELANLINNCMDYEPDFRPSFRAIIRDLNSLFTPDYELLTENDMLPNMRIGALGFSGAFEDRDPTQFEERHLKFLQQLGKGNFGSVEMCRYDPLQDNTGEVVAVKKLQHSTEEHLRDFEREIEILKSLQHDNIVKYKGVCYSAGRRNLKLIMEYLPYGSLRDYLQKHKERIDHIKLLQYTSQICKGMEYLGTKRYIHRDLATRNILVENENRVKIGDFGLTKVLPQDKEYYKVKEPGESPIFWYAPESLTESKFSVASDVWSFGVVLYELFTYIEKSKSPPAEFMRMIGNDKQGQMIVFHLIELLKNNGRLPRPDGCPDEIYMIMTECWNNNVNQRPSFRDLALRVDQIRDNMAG

c-Abl (mouse) = experiment: as above
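Throughout, for SH2 binding enrichment of the phosphorylated peptide, bacterial display: peptide library displayed on the E. coli surface as eCPX fusions, selected cells deep-sequenced, score is each peptide's frequency after selection divided by its frequency in the input.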
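Throughout, for phosphorylation enrichment, bacterial display: 11-residue human phosphosite peptides and single-mutation variants displayed on the E. coli surface, counted by deep sequencing, each peptide's frequency after selection divided by its frequency in the unselected input library; frequency after pTyr selection over input frequency; kinase dosed for 20-30% of maximal phosphorylation in three min.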

Sequence	SH2 binding enrichment (Grb2 SH2)	SH2 binding enrichment (c-Src SH2)	SH2 binding enrichment (SHP2-C SH2)	phosphorylation enrichment (MERTK)	phosphorylation enrichment (Fes)	phosphorylation enrichment (EPHB1)	phosphorylation enrichment (Fyn)	phosphorylation enrichment (FGFR3)	phosphorylation enrichment (Fer (mouse))	phosphorylation enrichment (c-Src)	phosphorylation enrichment (Hck)	phosphorylation enrichment (FGFR1)	phosphorylation enrichment (AncSZ)	phosphorylation enrichment (EPHB2)	phosphorylation enrichment (Jak2)	phosphorylation enrichment (c-Abl (mouse))
TLQNMYGCDVG [HLA-B_Y123_S121N]	1.01	0.643	0.765	0.446	1.2	0.702	0.586	0.669	0.64	0.601	0.625	0.545	0.886	0.581	0.989	0.756
TLSGIYQYNIA [FOXL2_Y81_I84N]	0.817	1.33	1.07	9.86	0.963	1.82	4.61	0.701	13.1	6.54	4.79	0.752	1.32	1.15	0.951	1.06
TPSGNYVACGG [GNB1_Y111_A106T]	1.14	1.73	1.25	0.516	0.8	0.771	0.447	0.436	0.415	0.783	0.488	0.555	0.614	0.704	0.602	0.677
TPTYPYLLPKS [PLD2_Y580]	0.768	0.62	0.899	0.564	0.599	0.29	0.452	0.505	0.286	0.581	0.441	0.63	0.527	0.349	0.639	0.564
TSQSQYFSFRE [CCDC170_Y323]	1.15	0.796	0.999	0.818	0.891	0.315	3.07	1.49	0.461	4.89	1.72	1.62	0.745	0.368	1.29	0.604
TTICKYSTPME [GUCY2C_Y839]	0.924	1.05	0.967	0.446	0.801	0.395	0.35	0.567	0.351	0.474	0.413	0.608	0.798	0.488	0.756	0.63
TYAVSYLPDMS [FLNC_Y1602_T1599A]	0.809	0.674	0.95	1.6	0.763	0.559	0.589	0.576	0.575	0.811	0.732	0.428	0.867	0.785	0.924	0.963
VAFLYYKSIGP [ADGRL4_Y302_V300L]	0.771	0.341	0.633	0.389	1.54	0.78	0.45	1.09	0.589	0.392	0.625	0.531	1.21	0.776	1.44	1.43
VDTGVYAVPPP [BCAR1_Y410_S407T]	0.775	0.556	0.602	9.22	0.799	8.36	8.6	1.14	5.77	4.89	7.67	1.28	2.39	20.2	0.827	20.7
VFGVSYDEFRF [CFTR_Y512_I507V_YF]	0.984	0.859	1.09	0.799	1.13	0.578	1.13	0.736	1.98	2.83	1.25	0.452	1.09	0.577	1.4	0.823
VHLYAYDWISI [BEST1_Y227_G222V]	1.48	1.18	1.42	8.36	3.05	7.2	1.18	4.71	13	1.44	1.83	5.73	2.32	5.88	1.33	0.865
VMAVAYRLAEQ [HK1_Y461_T457M]	1.26	0.685	1.03	0.46	1.06	0.619	0.431	0.676	0.491	0.463	0.445	0.463	0.972	0.496	1.04	0.708
VRALTYCDLHK [KCNH2_Y827]	0.885	0.715	0.968	0.453	0.874	0.603	0.499	0.591	0.531	0.392	0.582	0.452	0.74	0.704	0.605	0.656
VRFMAYTDETF [F8_Y450]	0.734	0.498	0.719	0.456	1.19	0.657	0.516	0.746	0.494	0.433	0.487	0.608	1.04	0.612	1.2	0.789

More lines, main results first:

SH2 binding enrichment (Grb2 SH2)	SH2 binding enrichment (c-Src SH2)	SH2 binding enrichment (SHP2-C SH2)	Sequence	phosphorylation enrichment (MERTK)	phosphorylation enrichment (Fes)	phosphorylation enrichment (EPHB1)	phosphorylation enrichment (Fyn)	phosphorylation enrichment (FGFR3)	phosphorylation enrichment (Fer (mouse))	phosphorylation enrichment (c-Src)	phosphorylation enrichment (Hck)	phosphorylation enrichment (FGFR1)	phosphorylation enrichment (AncSZ)	phosphorylation enrichment (EPHB2)	phosphorylation enrichment (Jak2)	phosphorylation enrichment (c-Abl (mouse))
0.855	0.616	0.6	TNDRLYLRSLE [MTM1_Y71_Y68D]	0.376	0.978	0.514	0.458	0.503	0.411	0.535	0.443	0.438	0.881	0.452	0.937	0.651
1.04	0.806	0.774	TNRSFYFKPSL [NUP153_Y382_V381F]	2.6	0.993	0.646	0.428	0.63	0.406	0.491	0.533	0.954	0.988	0.555	3.54	1.35
1.11	0.912	0.787	TRSFKCLLLSM [NF1_Y491_Y491C_YF]	0.444	1.08	0.551	0.474	0.609	0.496	0.4	0.492	0.531	0.969	0.581	1.09	0.713
1.36	0.792	0.434	TTKGAYSLSIR [YES1_Y194]	0.548	0.681	0.369	0.406	0.395	0.383	0.567	0.445	0.49	0.656	0.414	0.614	0.669
0.997	0.688	3.79	TTPGPYRSIFF [MPG_Y71_YF]	0.663	0.923	0.493	0.514	1.07	0.368	0.728	0.521	0.551	1.07	0.546	0.626	0.706
0.84	0.377	1.13	TVMGLYQKSSL [MYH7_Y609_V606M]	0.601	0.797	0.657	0.404	0.618	0.527	0.563	0.573	0.412	0.824	0.516	0.707	0.525
1.22	0.783	1.13	VASMFYTLVIP [OR8K3_Y277_I275M]	5.7	1.14	1.13	0.661	2.37	3.5	1.38	0.667	2.79	1.96	0.82	1.51	0.691
0.863	0.62	0.675	VCDALYPPGPP	0.282	0.794	0.465	0.306	0.467	0.489	0.443	0.288	0.421	0.779	0.329	0.73	0.766
0.75	0.466	0.661	VDDEIYFFRKP [PBRM1_Y1289_YF]	0.796	1.4	0.693	6.18	1.32	0.652	5.57	5.24	1.32	2.12	0.635	1.25	1.35
0.991	0.844	0.87	VDFQPYRKHKF [TEX37_Y28_YF]	0.472	0.639	0.403	0.45	0.587	0.463	0.377	0.451	0.401	0.553	0.32	0.479	0.595
0.813	1.59	1.15	VDSNPYSHLMA [UBA5_Y53_R55H]	0.518	0.631	0.48	0.639	0.489	1.25	0.862	0.891	0.418	0.669	0.481	0.577	0.504
0.957	0.59	0.68	VGQRPYRPLPE [REEP3_Y170_Q171R]	0.473	0.637	0.391	0.492	0.519	0.482	0.471	0.4	0.482	0.584	0.557	0.67	0.683
0.809	0.606	0.854	VGRVGYVSGWG [HP_Y280]	0.406	0.792	0.4	0.456	0.56	0.395	0.507	0.415	0.427	0.781	0.514	0.821	0.807
0.725	0.567	0.64	VHSGTYQVTVR [MYBPC3_Y1043]	0.409	0.586	0.521	0.448	0.391	0.435	0.561	0.738	0.404	0.593	0.489	0.48	0.442
0.816	0.354	0.416	VICRRYLVMQR [IL3RA_Y328]	0.531	1.05	0.456	0.595	0.74	0.46	0.342	0.487	0.786	1.24	0.69	0.894	0.618
1.29	1.14	1.23	VKALKYKSMKI [ITGA11_Y1098_L1093V]	0.276	0.507	0.32	0.329	0.405	0.327	0.306	0.31	0.369	0.396	0.331	0.434	0.472
1.12	0.584	0.718	VKPENDRRLDI [VHL_Y175_Y175D]	0.531	0.789	0.44	0.43	0.539	0.43	0.356	0.43	0.37	0.675	0.438	0.692	0.535
0.652	0.518	1.06	VQQVIYATRAL [MYH7_Y422_G425R]	0.711	0.684	0.434	9.04	0.534	0.57	7.24	8.57	0.468	0.663	0.505	0.598	14.1
0.888	0.52	0.958	VRFMEYETQVK [TARDBP_Y155_T153M]	0.373	0.981	1.25	0.384	0.694	0.418	0.481	0.459	0.394	0.943	1.14	0.979	0.73
